Laboratory results: patent publication US8466107B2, “Fibrin-binding peptides and conjugates thereof” (Bracco Imaging SpA, priority 2006, dated 2013)
Bridge positions count the residues as written; N and C are the ends.

Target: T1, human clots (Homo sapiens, UniProt P02671+P02675+P02679)
T1 construct: Small plasma clots from different species (human, guinea pig and mouse); tissue Dade Behring; host or cells: pooled human plasma (Control Plasma N), clotted with Pathromtin SL and CaCl2
T1 sequence (P02671 36-629 limits assumed): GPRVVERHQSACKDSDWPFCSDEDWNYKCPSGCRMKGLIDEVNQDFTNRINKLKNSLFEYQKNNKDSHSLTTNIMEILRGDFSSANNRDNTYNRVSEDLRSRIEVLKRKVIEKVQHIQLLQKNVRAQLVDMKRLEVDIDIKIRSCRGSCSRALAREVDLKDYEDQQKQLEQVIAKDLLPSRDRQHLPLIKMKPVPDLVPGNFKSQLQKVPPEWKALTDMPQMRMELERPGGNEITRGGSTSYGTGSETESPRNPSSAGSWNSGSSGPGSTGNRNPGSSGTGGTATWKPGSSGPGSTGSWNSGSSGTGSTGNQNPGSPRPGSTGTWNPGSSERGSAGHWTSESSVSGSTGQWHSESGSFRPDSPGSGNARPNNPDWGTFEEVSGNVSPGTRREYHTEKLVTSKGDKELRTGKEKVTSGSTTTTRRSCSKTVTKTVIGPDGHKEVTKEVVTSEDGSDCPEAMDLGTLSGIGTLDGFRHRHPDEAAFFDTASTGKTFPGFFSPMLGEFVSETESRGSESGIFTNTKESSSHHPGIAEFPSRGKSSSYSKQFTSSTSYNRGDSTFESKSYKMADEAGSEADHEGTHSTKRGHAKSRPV
T1 sequence (P02675 45-491 limits assumed): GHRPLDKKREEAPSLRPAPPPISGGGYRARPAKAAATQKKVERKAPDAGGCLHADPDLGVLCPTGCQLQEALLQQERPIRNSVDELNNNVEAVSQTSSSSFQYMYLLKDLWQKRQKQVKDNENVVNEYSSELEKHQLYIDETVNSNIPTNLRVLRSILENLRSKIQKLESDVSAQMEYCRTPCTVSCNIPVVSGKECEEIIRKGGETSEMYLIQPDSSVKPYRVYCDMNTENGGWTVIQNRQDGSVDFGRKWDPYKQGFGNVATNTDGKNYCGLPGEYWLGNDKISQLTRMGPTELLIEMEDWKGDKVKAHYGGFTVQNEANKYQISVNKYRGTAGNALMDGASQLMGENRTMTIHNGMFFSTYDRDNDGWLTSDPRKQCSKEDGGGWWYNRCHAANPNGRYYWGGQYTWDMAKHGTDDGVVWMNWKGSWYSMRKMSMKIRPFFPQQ
T1 sequence (P02679 27-437 isoform P02679-2 limits assumed): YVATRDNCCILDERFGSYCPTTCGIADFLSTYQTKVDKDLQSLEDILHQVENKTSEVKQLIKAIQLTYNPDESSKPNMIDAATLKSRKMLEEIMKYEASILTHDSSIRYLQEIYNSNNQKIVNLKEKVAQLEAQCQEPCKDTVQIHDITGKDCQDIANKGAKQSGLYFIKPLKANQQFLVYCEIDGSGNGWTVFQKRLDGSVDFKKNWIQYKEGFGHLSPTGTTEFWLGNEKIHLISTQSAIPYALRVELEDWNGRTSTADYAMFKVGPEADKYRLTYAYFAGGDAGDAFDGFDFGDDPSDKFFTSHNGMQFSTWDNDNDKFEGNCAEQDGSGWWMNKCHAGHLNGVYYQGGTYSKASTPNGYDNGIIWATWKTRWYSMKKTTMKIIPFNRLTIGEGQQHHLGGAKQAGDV
Assay: In vitro MRI test of signal enhancement in plasma clots incubated with contrast agents
Type: binding
Description: Small plasma clots from different species (human, guinea pig and mouse) ranging from 0.5-7 mm in diameter were formed by combining citrate plasma (1:3,v/v) phospholipids (Reagent Pathromtin) and CaCl2 0.008 M (Dade Behring, Germany) into small 2 ml vials at 37° C. Clots were washed 3 times with TBS 1× and incubated with contrast agents at 100 μM for 30 minutes at 37° C. Two clots were prepared for each solution of incubation. After the incubation clots were washed 4 times with TBS 1× and placed into small vials filled with TBS 1× for MRI analysis. T1-weighted 2D Spin-Echo (SE) images were acquired with the following parameters: TR/TE=400/8 ms, spatial resolution=344 μm and slice thickness=2 mm. Maximum signal intensity was measured in each image containing clot and compared to the signal from a clots incubated in TBS. […]
This protocol has been developed and used to test the specificity and efficiency of the fibrin targeted contrast agents of the invention for sensitive detection of thrombus by use of MRI. […] Signal enhancement from each sample incubated with the fibrin targeted contrast agent was evaluated and compared to a standard contrast agent ProHance®. […]
High resolution MRI was then performed by using T1-weighted Spin-Echo (SE) sequences. T1 maps were also calculated from the acquisition of 2D gradient echo images or inversion recovery spin echo images. […]

## Chelated Complex 1: Gd chelated complex (four DTPA-Glu units on branched lysine linker) conjugated to the fibrin-binding peptide; MRI contrast agent (Ac-WQPCPAESWTFCWDPGGGK-NH2; disulfide 4-12; not fully specified (some residues); also: further groups not given here)
Human clots incubated with 100 μM complex, 30 minutes at 37° C., T1-weighted spin-echo MRI at 2T
  Max signal Enhancement at 100 μM: 100%
Human clots, 100 μM concentration
  signal enhancement in clots, ranking of tested compounds: maximum signal enhancement
